Experimental data from patent US5780296.

Tested on: T1, REC2 recombinase (Ustilago maydis)
T1 sequence: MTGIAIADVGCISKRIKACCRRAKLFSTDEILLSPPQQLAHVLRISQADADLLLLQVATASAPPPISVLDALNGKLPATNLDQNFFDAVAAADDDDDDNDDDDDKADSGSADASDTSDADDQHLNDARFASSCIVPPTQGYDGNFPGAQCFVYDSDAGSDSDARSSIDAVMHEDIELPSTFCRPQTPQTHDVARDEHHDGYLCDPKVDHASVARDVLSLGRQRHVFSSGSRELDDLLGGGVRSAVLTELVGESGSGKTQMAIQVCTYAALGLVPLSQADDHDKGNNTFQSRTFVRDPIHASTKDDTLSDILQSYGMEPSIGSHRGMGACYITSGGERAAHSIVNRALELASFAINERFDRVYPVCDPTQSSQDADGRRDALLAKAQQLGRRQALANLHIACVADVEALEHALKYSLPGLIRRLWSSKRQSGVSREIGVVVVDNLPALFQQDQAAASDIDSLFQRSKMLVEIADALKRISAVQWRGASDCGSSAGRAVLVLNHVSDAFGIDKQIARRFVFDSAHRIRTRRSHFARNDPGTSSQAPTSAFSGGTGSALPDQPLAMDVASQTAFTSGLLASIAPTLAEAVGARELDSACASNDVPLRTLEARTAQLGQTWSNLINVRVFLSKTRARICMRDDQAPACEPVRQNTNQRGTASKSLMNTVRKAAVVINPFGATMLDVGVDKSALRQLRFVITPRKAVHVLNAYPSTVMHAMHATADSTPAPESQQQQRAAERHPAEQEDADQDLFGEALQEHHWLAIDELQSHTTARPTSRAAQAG
Conditions: DNA-dependent ATPase turnover; 10 mM MgCl2, pH 7.5, 37 C

Substance: M13 single-stranded circular DNA
- activity: 5.3 min⁻¹
